Data on one substance can be found in paper PMC2714072.

Assay [1] deals with SYT/L (long isoform of SYT/SS18), monkey (Cos-1) (monkey (endogenous in Cos-1)). In words: co-IP; endogenous proteins; post-nuclear (cytosolic) lysates of U2OS or Cos-1 cells in MLB buffer (25 mM HEPES pH 7.5, 150 mM NaCl, 1% Igepal CA-630, 10 mM MgCl2, 1 mM EDTA, 2% glycerol, 1 mM ATP); 1 µg pSYT or SYT/L-specific antibody overnight, Protein G PLUS-Agarose, 3 washes with RIPA buffer; bands stained with SYPRO Ruby, excised and identified by nano LC/MS/MS; controls: IgG and lysates of panSYT229 RNAi cells; Cos-1 lysates also pre-incubated with 100 µM GTP-γS or 1 mM GDP for 30 min at 30°C.

Assay [2] has as its target SYT/S (short isoform of SYT/SS18), monkey (Cos-1) (monkey (endogenous in Cos-1)). The assay is described as above.

For “actin, monkey (Cos-1) (from UniProt Q76N69 1-375) (natural protein)”, the difference in co-immunoprecipitated level between lysates with GTP-γS and with GDP in assay [1] and in assay [2] was less than 5% throughout.
